Assay results taken from paper PMC9444907.
Like-named read-outs stand apart in the source and are kept apart here.

Tests used:
[1] = biological target: p107ΔL pocket domain (residues 389-972, Δ600-779, Δ888-923) (human); experiment: ITC
[2] = biological target: human Rb pocket domain lacking the single internal loop (residues 380-787; Δ582-642) (human) (UniProt P06400); experiment: ITC
[3] = biological target: Rb pocket domain (Homo sapiens) (UniProt P06400); conditions: cited from earlier work
[4] = biological target: Rb pocket domain (Homo sapiens) (UniProt P06400); conditions: cited from earlier work; remark: listed apart in the source
[5] = biological target: p107 pocket domain V939M (human); experiment: ITC
[6] = biological target: p107 pocket domain M865V (human); experiment: ITC

| Kd [1] | Kd [2] | Substance | further results |
| --- | --- | --- | --- |
| 2300 nM |  | ARID4A peptide E955R |  |
| 7000 nM | 6000 nM | human EID1 LxCxE motif peptide |  |
| > 10000 nM |  | human HDAC1 LxCxE motif peptide |  |

More lines, now with the values behind:

| Substance | Kd [1] | Kd [2] | further results |
| --- | --- | --- | --- |
| EID1 peptide E176R/E177R | 14000 nM | 9000 nM |  |
| EID1 peptide G179Y/D181Y | 250 nM | 170 nM |  |
| HDAC1 triple (3X) mutant peptide R413D/A415Y/E417Y | 105 nM |  |  |
| HPV16 E7 peptide (from UniProt P03129) |  |  | Kd [3]: 5 nM |
| PRDM2 IxCxE peptide (from UniProt Q13029) |  |  | Kd [4]: 640 nM |
| human ARID4A LxCxE motif peptide | 1600 nM | 140 nM | Kd [5]: 330 nM; Kd [6]: 120 nM |
